The values below come from patent US20120141527A1.

* marks the point of attachment. FITC = O=C1OC2(c3ccc(O)cc3Oc3cc(O)ccc32)c2ccc(NC(=S)*)cc21; βAla = NCCC(=O)O

The test has as its target doubly-mutant HR1 peptides. Kind of test: native PAGE complex assembly assay, densitometry of fluorescence scans.

B1: FITC-SAH-gp41(626-662)(A, F) (peptide)
peptide: {FITC-βAla}-LTWAEWDAEINNYTSLIHSLIEESQNQAEKNAQELLE-NH2
modifications: staple (positions not given here); also: two hydrocarbon staples from S5 residues, positions not given here
Turning to B1, the fold enhancement in binding activity compared to FITC-T649v was < 2 fold.
